Laboratory results as given in patent US20240343810A1 (published 2024).

T1: mouse ICOS expressed on CHO cells (mouse, UniProt Q9WVS0 21-200)
T1 construct: also called CHO-S cells transfected with mouse ICOS; mICOS
T1 sequence (looked up): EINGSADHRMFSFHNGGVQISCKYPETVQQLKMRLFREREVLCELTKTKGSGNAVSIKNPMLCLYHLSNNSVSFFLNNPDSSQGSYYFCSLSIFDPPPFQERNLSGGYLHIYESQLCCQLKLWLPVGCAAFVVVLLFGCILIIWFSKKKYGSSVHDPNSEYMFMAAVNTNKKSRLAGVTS

T2: human ICOS-mFc (Chimerigen) (human, UniProt Q9Y6W8 21-140)
T2 construct: Bought; also called recombinant human ICOS protein; hICOS; not shown: mouse Fc of the bought fusion
T2 sequence: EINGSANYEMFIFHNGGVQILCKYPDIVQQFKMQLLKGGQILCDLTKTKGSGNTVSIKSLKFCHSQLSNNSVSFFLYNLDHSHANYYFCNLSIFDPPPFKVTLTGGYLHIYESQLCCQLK

T3: human ICOS expressed on cells (human, UniProt Q9Y6W8 21-199)
T3 construct: also called CHO-S cells transfected with human ICOS; hICOS
T3 sequence: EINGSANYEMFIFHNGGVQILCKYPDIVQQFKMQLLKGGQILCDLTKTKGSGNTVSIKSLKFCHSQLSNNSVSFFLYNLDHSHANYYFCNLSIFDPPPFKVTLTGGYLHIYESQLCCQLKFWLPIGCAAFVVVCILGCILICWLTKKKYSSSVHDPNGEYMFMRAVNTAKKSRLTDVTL


Key:
[1] = biological target: T1, mouse ICOS expressed on CHO cells; test: Flow cytometry on CHO-S mouse ICOS cells, anti-human IgG AF647, mean
Method: (§1) CHO—S cells transfected with either human ICOS or mouse ICOS were resuspended in FACS buffer (PBS+1% w/v BSA+0.1% w/v sodium azide) and transferred to a 96-well V-bottom plate (Greiner) at a density of 1×10⁵ cells per well. mAb and mAb² were titrated in FACS buffer, 1 in 3 dilution across 11 points from a starting working concentration of 400 nM. Plates were centrifuged at 300×g for 3 minutes, supernatant discarded and 50 μL mAb or mAb² solution were added to cells and incubated at 4° C. for 1 hour. Cells were washed with 150 μL of PBS and centrifuged at 300×g for 3 minutes, supernatant was discarded and cell pellet resuspended in 150 μL PBS added. This wash step was repeated twice. Bound mAb or mAb² was detected by addition of 50 μL of anti-human 647 (Jackson ImmunoResearch) diluted to 3 ug/ml in FACS buffer. Cells were incubated for 1 hour at 4° C. in the dark. Cells were washed with 150 μL of PBS and centrifuged at 300 g for 3 minutes, supernatant was discarded and cell pellet resuspended in 150 μL PBS added. This wash step was repeated twice. Cells were fixed with 25 μL 4% v/v paraformaldehyde, incubated for 20 minutes at 4° C., cells were pelleted by centrifugation at 300×g and the supernatant discarded. […] AlexaFluor 647 signal intensity (geometric mean) was measured by flow cytometry using a Beckman Coulter CytoFLEX instrument.

[2] = biological target: T2, human ICOS-mFc (Chimerigen); test: HTRF, human ICOS-mFc, competitor human B7-H2-Alexa 647, n3
Method: 5 μl of human ICOS-mFc (Chimerigen) at 20 nM (5 nM final) or 5 ul of mouse ICOS-mFc (Chimerigen) at 4 nM (1 nM final) were added to relevant assay wells. Plate was incubated for 1 hour (hr) at room temperature (RT).
After incubation, assay was read on Envision plate reader (Perkin Elmer) using a standard HTRF protocol. 620 nm and 665 nm channel values were exported to Microsoft Excel and % Delta-F and % Neutralisation calculations performed. Titration curves and IC50 values [M] were plotted using Graphpad (Prism). IC50 values were calculated by first transforming the data using equation X=Log(X). The transformed data was then fitted using nonlinear regression, using fitting algorithm, log (inhibitor) vs. response—variable slope (four parameters).

[3] = biological target: T1, mouse ICOS expressed on CHO cells; test: Flow cytometry on CHO-S mouse ICOS cells, anti-human IgG AF647, N=2
Method: as §1

[4] = biological target: T4, mouse PD-L1 expressed on CHO cells (mouse, UniProt Q9EP73 19-290); test: Flow cytometry on CHO mouse PD-L1 cells (sentence prints 'human PD-L1')
T4 construct: also called CHO-S cells transfected with mPD-L1; CHO mouse PD-L1
T4 sequence (Q9EP73 19-290 limits assumed): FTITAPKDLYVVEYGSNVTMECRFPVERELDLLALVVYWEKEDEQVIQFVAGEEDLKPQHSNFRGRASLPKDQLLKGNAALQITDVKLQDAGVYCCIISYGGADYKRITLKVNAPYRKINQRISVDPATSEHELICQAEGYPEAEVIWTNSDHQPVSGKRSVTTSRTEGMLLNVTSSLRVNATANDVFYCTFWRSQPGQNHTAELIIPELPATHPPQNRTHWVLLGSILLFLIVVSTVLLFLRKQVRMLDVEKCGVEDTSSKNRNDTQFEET

[5] = biological target: T3, human ICOS expressed on cells; test: Flow cytometry on CHO-S human ICOS cells, anti-human IgG AF647, N=1
Method: as §1

[6] = biological target: T3, human ICOS expressed on cells; test: Flow cytometry on CHO-S human ICOS cells, anti-human IgG AF647, N=3
Method: as §1

[7] = biological target: T3, human ICOS expressed on cells; test: Flow cytometry on CHO-S human ICOS cells, anti-human IgG AF647, N=2
Method: as §1

[8] = biological target: T5, human PD-L1 expressed on cells (human, UniProt Q9NZQ7 19-290); test: Flow cytometry on CHO human PD-L1 cells
T5 construct: also called CHO-S cells transfected with the cDNA coding for human PD-L1; CHO human PD-L1
T5 sequence (Q9NZQ7 19-290 limits assumed): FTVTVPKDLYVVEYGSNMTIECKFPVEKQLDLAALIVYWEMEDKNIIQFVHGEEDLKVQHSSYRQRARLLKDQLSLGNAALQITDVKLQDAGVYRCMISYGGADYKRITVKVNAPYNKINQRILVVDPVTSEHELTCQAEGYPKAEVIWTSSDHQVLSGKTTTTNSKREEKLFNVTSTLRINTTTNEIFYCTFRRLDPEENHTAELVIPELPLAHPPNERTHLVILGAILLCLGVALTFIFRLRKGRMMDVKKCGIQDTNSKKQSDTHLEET

EC50 [1] [nM] | IC50 [2] [nM] | EC50 [3] [nM] | binding result [4] | EC50 [5] [nM] | EC50 [6] [nM] | EC50 [7] [nM] | binding result [8] | Binder
5.42 | 0.71 | 2.19 | no binding (tested: 22 nM) | 7.22 | 4.49 | 4.89 | no binding (tested: 198 nM) | STIM003 (antibody, human IgG1, kappa, Anti-ICOS monospecific antibody, tested as human IgG1; also called STIM003 monoclonal IgG1 antibody) heavy: not shown light: EIVLTQSPGTLSLSPGERATLSCRASQSVSRSYLAWYQQKRGQAPRLLIYGASSRATGIPDRFSGDGSGTDFTLSISRLEPEDFAVYYCHQYDMSPFTFGPGTKVDIKRTVAAPSVFIFPPSDEQLKSGTASVVCLLNNFYPREAKVQWKVDNALQSGNSQESVTEQDSKDSTYSLSSTLTLSKADYEKHKVYACEVTHQGLSSPVTKSFNRGEC
16.9 | 2.33 | 5.06 | no binding (tested: 22 nM) | 30.1 | 19.7 | 13.8 | no binding (tested: 198 nM) | STIM001 (antibody, human IgG1, kappa, Anti-ICOS monospecific antibody, tested as human IgG1; also called STIM001 monoclonal IgG1 antibody) heavy: not shown light: DIVMTQSPLSLPVTPGEPASISCRSSQSLLHSNEYNYLDWYLQKPGQSPQLLIFLGSNRASGVPDRFSGSGSGTDFTLKITRVEAEDVGIYYCMQSLQTPLTFGGGTKVEIKRTVAAPSVFIFPPSDEQLKSGTASVVCLLNNFYPREAKVQWKVDNALQSGNSQESVTEQDSKDSTYSLSSTLTLSKADYEKHKVYACEVTHQGLSSPVTKSFNRGEC
